{"source": "the supplement of paper PMC12764529", "note": "± gives the half width of the 95% confidence interval."}
{"test": "folding stability dG unfold from chymotrypsin proteolysis; higher = more stable", "protocol": "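Folding stability of de novo designed mini-proteins (<80 aa, no Cys; designed by TrROS, TrMRF, ProteinMPNN and the joint model) was measured by cDNA display proteolysis with trypsin and chymotrypsin. Each protease was used at 11 concentrations in a threefold dilution series plus a no-protease condition. K50 was inferred by Bayesian fitting of sequencing counts, and dG unfold was derived against a sequence-predicted unfolded-state K50 (Tsuboyama et al. method). Sequences shown include variable-length N-terminal GS-type padding (SAGGSAGG...) inside a display construct carrying a PA tag. Rows were kept only if the AF2 dimer inter-PAE was >15, to exclude likely homo-oligomers.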", "units": {"folding stability dG unfold": "kJ/mol"}}
{"sequence": "SKTIYFPIPNDDPEEAVEWIADKLLEEHGHKIKDVEIPHKNGYYVRIEVDPNNPKIDIEVWPYDPDGEPLSA [r9_173_TrROS]", "folding stability dG unfold": "3.04 ± 0.753"}
{"sequence": "SAGGAIGPEEAERLAQEIADRLAAEFREAEPDVEVEVEAEVFPPEGVIRVRPRLPDGRLLAEVTFPVGSAGG [r13_247_TrMRF]", "folding stability dG unfold": "2.09 ± 0.172"}
{"sequence": "SPVAVVTYEDGSVSEVPFTHPDGRAYDLSRGPGDVATLTVTRLLPDGSLEPLPTVPFTSEAEAEAYLAAASA [r9_942_JUSTAS]", "folding stability dG unfold": "0.84 ± 0.502"}
{"sequence": "SAMKIEIEVPSLEQVKKLEKLLPDKYKISEVKVDPETKKVYVIIELDPSLSPEEVAKLEKEFEEVVKEESAG [r14_306_TrMRF]", "folding stability dG unfold": "21 ± 1.17"}
{"sequence": "SAGGSAGGDKVTIESFHPENWYFRIRYPGNGKPISFPIKSVDELLDKIEPSGLPVEIEWMPPEESAGGSAGG [r6_33_TrROS]", "folding stability dG unfold": "0.975 ± 1.09"}
{"sequence": "SAGGPNFMFRVKMPHPRPKKDPEDGKEKWRPQRHEHTVPFPADDPEQALDELADNMPPNNFKITDITSAGGS [r16_459_TrROS]", "folding stability dG unfold": "1.88 ± 0.92"}
{"sequence": "SAGGSAGGSAGGMRITIDDWDPDEGPYRVKVTNPDNNKKKTMPYENLEELAKEGPVEIHRSAGGSAGGSAGG [r7_452_TrROS]", "folding stability dG unfold": "1.54 ± 0.753"}
{"sequence": "SAGGSAGGSAGGGPPVERVTTETILRPDGTTTTTRKTTVVPPTDTVTTTTTTLTTTPVTSAGGSAGGSAGGS [r10_1139_JUSTAS]", "folding stability dG unfold": "1.37 ± 0.28"}
{"sequence": "SSTSMSTEPNRTVTTTTEKGGRSTVTTTTTTTFTASGETTTTTPVTTTTPPPPLGVYKDPAGVTRTRPLLSA [r9_456_JUSTAS]", "folding stability dG unfold": "1.42 ± 0.331"}
{"sequence": "SIIIPPKESAEEVLNEIKELLPPGRKYKITVFNPENGRMHEADFDPKKGNIEVEPHPFPNGPPFLMIERKSA [r9_1059_TrROS]", "folding stability dG unfold": "-1.62 ± 2.64"}
{"sequence": "SAGGSAGGSAGGSKVPPGAKITVERHDGGYRTVEIRPPNGKPVEIMMPEDDADEIADQISAGGSAGGSAGGS [r4_16_TrROS]", "folding stability dG unfold": "-5.27 ± 3.43"}
{"sequence": "SAGGSAGGSAGGKKKVKILEVKKIPELNEIVVVIETENGKPVLVPLKPGKTLEDVKKEISAGGSAGGSAGGS [r10_984_TrMRF]", "folding stability dG unfold": "3.82 ± 0.176"}
{"sequence": "SAGGSAGGSAGGMVKKTYEKKKPPGSMEYVTEKEYDPKTNTVKTTTVPVSEYKNIPNKNSAGGSAGGSAGGS [r10_1077_JUSTAS]", "folding stability dG unfold": "-0.404 ± 2.34"}
{"sequence": "SAGGSAGGSENAALENPFANRPPIPPVRAVLYDPDGTPRVLEGRSLEEIRRYAEERGVVVDISSAGGSAGGS [r12_244_TrMRF]", "folding stability dG unfold": "1.66 ± 0.301"}
{"sequence": "SAGGSAGGSAGGQPLLARPNDEPIVEVEISETTTLLPNGTVVTTYSVPKKGILTTVTLVSAGGSAGGSAGGS [r10_160_JUSTAS]", "folding stability dG unfold": "-2.94 ± 1.21"}
{"sequence": "SAGGSAGGSAGGSPFWRIKIENPGNGKEITVMVPPDDIDKAKEEAEQEGLKKIEIEPVPSAGGSAGGSAGGS [r4_102_TrROS]", "folding stability dG unfold": "-0.365 ± 1.26"}
{"sequence": "SAGGMTTTTTLEVAPDTPYEAALAEIEAALAAAAAGRPVASSPVAARPGGARTLPLVVTDGAVTALGSAGGS [r8_7_JUSTAS]", "folding stability dG unfold": "3.99 ± 0.172"}
{"sequence": "SAGGSAGGSAGEAASSLKLPPVTLTTPPVPVELPPGLTVESVEPVRTPSGETILVVNLVRSAGGSAGGSAGG [r11_388_JUSTAS]", "folding stability dG unfold": "1.17 ± 0.544"}
{"sequence": "SAGGSAGGSAGGKPTIKLKVTITNENGEKIEIEVEAESEEEALEALKALLPPGWKVEIESAGGSAGGSAGGS [r10_145_TrROS_Hall]", "folding stability dG unfold": "11.8 ± 0.837"}
{"sequence": "SAGGSAGGSAGGPEIKPFDSLEEVVEEIKKNPNKERIYLLPDSVIYTLKEDKILKIEPLKSAGGSAGGSAGG [r7_532_TrMRF]", "folding stability dG unfold": "-0.44 ± 1.97"}
{"sequence": "SAGGSAGGSMSTVSTSTTYFPDKKVTTTTTVTPTPDGTTATTPSVTVTPLPPPNPPPAPFNRLSAGGSAGGS [r20_30_JUSTAS]", "folding stability dG unfold": "-0.521 ± 1.17"}
{"sequence": "SAGGSAGGSDKDVKIKVDPERTPDGNYYYRIEIENGKEINIHMPPENMTPEDAKDFVKDIIKKSAGGSAGGS [r12_218_TrROS]", "folding stability dG unfold": "-1.84 ± 1.63"}
{"sequence": "SAGGSAGGPPPVRVTIETETTTTFPNGTPRTTTNTVVLDAPEEEAEAAVAAIPASVVKSVARTGSAGGSAGG [r6_985_JUSTAS]", "folding stability dG unfold": "2.03 ± 0.238"}
{"sequence": "SAGKMTIEIVVEVKPGMTEEELKEKLEELVKKLKEEFPELKNLEIKIVEVKVERLEDGTLRVTVKIEVKSAG [r5_985_TrROS_Hall]", "folding stability dG unfold": "12.9 ± 1"}
{"sequence": "SMTIKELLKAHPGQPVEDLAKRIMDEMNANFPNGMPIKINLEYDPGGIKVDVEMWNNDKPQTDEFTIRPDSA [r9_805_TrROS]", "folding stability dG unfold": "1.37 ± 0.381"}
{"sequence": "SAGGSAGGSAGGMKVTVEYPDALSVEVEPDSATTTYPNGSRIVVEAPGVTTYDPLPPERSSAGGSAGGSAGG [r7_30_JUSTAS]", "folding stability dG unfold": "0.488 ± 0.192"}
{"sequence": "SAGGSAGGSMNVKKVESEKDTGDGSTLTTNTVELPSNIIIVEPVLTPPSGNPQTTTKILPKGLSAGGSAGGS [r12_407_JUSTAS]", "folding stability dG unfold": "-0.658 ± 0.502"}
{"sequence": "SAGGSAGGAPVYVTTDTRERADPNGSTVRTSLVRDPNGPATYRVTETVPPDGSVASTTTAVPGASAGGSAGG [r6_839_JUSTAS]", "folding stability dG unfold": "-2.23 ± 0.962"}
{"sequence": "SAGGSAGGSAGGDVNSPNIPPVLTVEPVEVLDPGGGGLRRRVVYVAPGGIVLETEERPESAGGSAGGSAGGS [r10_261_JUSTAS]", "folding stability dG unfold": "2.94 ± 0.502"}
{"sequence": "SAGGSAGGVEELAKKLNIEVTGNEVTITLKKKKVTVKKLKAPPLKVKKYVDKKTKKIVKTEVELSAGGSAGG [r6_981_TrROS_Hall]", "folding stability dG unfold": "3.76 ± 1.17"}
{"sequence": "SAGGSAGGSEPRLILTTFPLPEPGEPVLRLLVIGEDRILAVRVVGEKPELRELDRLDDLLAEQSAGGSAGGS [r12_299_TrMRF]", "folding stability dG unfold": "-1.81 ± 1.92"}
{"sequence": "SAGGSAGGALTPTDEVTLTLPDGTVRPGRVEVLPDNVVRVRLEGSEVLLTRDPEGDEVTVERVASAGGSAGG [r6_68_JUSTAS]", "folding stability dG unfold": "4.03 ± 0.046"}
{"sequence": "SAGGSAGGSVEELLAAATSEDPAKGLARAELPSGATATVDPAAGTVTITFTSPGTPSTTTVPAPSAGGSAGG [r6_793_JUSTAS]", "folding stability dG unfold": "1.38 ± 0.544"}
{"sequence": "SAGGSAGGSMKTVKPTELLASLSPEEEVILTTPTSATRLTVEEVKNVPEDTPVDVEVVPRNAASAGGSAGGS [r12_501_JUSTAS]", "folding stability dG unfold": "2.87 ± 0.0628"}
{"sequence": "SAGGMLITEEDLAALLAAVPPERPDAVVTLTVGRLQRILPGSTGENEPIPSSVEPSVVTLPVTVPPASAGGS [r16_708_JUSTAS]", "folding stability dG unfold": "-3.48 ± 1"}
{"sequence": "SAGGSAGGMREIEHEIPNPNGRNIKIKIEYDPDQGWHPVEIENPGNGKKKTYPFDSADEVLDQLSAGGSAGG [r6_465_TrROS]", "folding stability dG unfold": "2.5 ± 0.13"}
